Laboratory results: patent US20190225692A1 (JUNO THERAPEUTICS, published 2019)

B1: modified version of TCR 5 (codon optimized, cysteine modified) (TCR, V domains shown)
V domain 1: AQKITQTQPGMFVQEKEAVTLDCTYDTSDQSYGLFWYKQPSSGEMIFLIYQGSYDEQNATEGRYSLNFQKARKSANLVISASQLGDSAMYFCAMREGTGTSYGKLTFGQGTILTVHP
V domain 2: DVKVTQSSRYLVKRTGEKVFLECVQDMDHENMFWYRQDPGLGLRLIYFSYDVKMKEKGDIPEGYSVSREKKERFSLILESASTNQTSMYLCASSPWGETHQPQHFGDGTRLSILE
B2: TCR 17 (codon optimized, cysteine modified version) (TCR, V domains shown)
V domain 1: AQKITQTQPGMFVQEKEAVTLDCTYDTSDPSYGLFWYKQPSSGEMIFLIYQGSYDQQNATEGRYSLNFQKARKSANLVISASQLGDSAMYFCAMREGRGDKIIFGKGTRLHILP
V domain 2: DVKVTQSSRYLVKRTGEKVFLECVQDMDHENMFWYRQDPGLGLRLIYFSYDVKMKEKGDIPEGYSVSREKKERFSLILESASTNQTSMYLCASSLWGRSNQPQHFGDGTRLSILE
B3: TCR 23 (codon optimized, cysteine modified version) (TCR, V domains shown)
V domain 1: AQKITQTQPGMFVQEKEAVTLDCTYDTSDQSYGLFWYKQPSSGEMIFLIYQGSYDEQNATEGRYSLNFQKARKSANLVISASQLGDSAMYFCAMSPPGGSARQLTFGSGTQLTVLP
V domain 2: DVKVTQSSRYLVKRTGEKVFLECVQDMDHENMFWYRQDPGLGLRLIYFSYDVKMKEKGDIPEGYSVSREKKERFSLILESASTNQTSMYLCASSPWGQSNQPQHFGDGTRLSILE
B4: TCR 18 (codon optimized, cysteine modified version) (TCR, V domains shown)
V domain 1: KQEVTQIPAALSVPEGENLVLNCSFTDSAIYNLQWFRQDPGKGLTSLLLIQSSQREQTSGRLNASLDKSSGRSTLYIAASQPGDSATYLCAEGNAGGTSYGKLTFGQGTILTVHP
V domain 2: DVKVTQSSRYLVKRTGEKVFLECVQDMDHENMFWYRQDPGLGLRLIYFSYDVKMKEKGDIPEGYSVSREKKERFSLILESASTNQTSMYLCASSFWGRSNSPLHFGNGTRLTVTE
B5: TCR 24 (codon optimized, cysteine modified version) (TCR, V domains shown)
V domain 1: AQKITQTQPGMFVQEKEAVTLDCTYDTSDQSYGLFWYKQPSSGEMIFLIYQGSYDEQNATEGRYSLNFQKARKSANLVISASQLGDSAMYFCAMREGRGDSWGKLQFGAGTQVVVTP
V domain 2: DVKVTQSSRYLVKRTGEKVFLECVQDMDHENMFWYRQDPGLGLRLIYFSYDVKMKEKGDIPEGYSVSREKKERFSLILESASTNQTSMYLCASSPFGRGSYEQYFGPGTRLTVTE
B6: modified version of TCR 7 (codon optimized, cysteine modified) (TCR, V domains shown)
V domain 1: KNQVEQSPQSLIILEGKNCTLQCNYTVSPFSNLRWYKQDTGRGPVSLTIMTFSENTKSNGRYTATLDADTKQSSLHITASQLSDSASYICVVSRDNYGQNFVFGPGTRLSVLP
V domain 2: EPEVTQTPSHQVTQMGQEVILRCVPISNHLYFYWYRQILGQKVEFLVSFYNNEISEKSEIFDDQFSVERPDGSNFTLKIRSTKLEDSAMYFCAITDRTNYGYTFGSGTRLTVVE
B7: TCR 21 (codon optimized, cysteine modified version) (TCR, V domains shown)
V domain 1: AQKITQTQPGMFVQEKEAVTLDCTYDTSDQSYGLFWYKQPSSGEMIFLIYQGSYDEQNATEGRYSLNFQKARKSANLVISASQLGDSAMYFCAMREGRVTGGGNKLTFGTGTQLKVEL
V domain 2: NAGVTQTPKFQVLKTGQSMTLQCAQDMNHNSMYWYRQDPGMGLRLIYYSASEGTTDKGEVPNGYNVSRLNKREFSLRLESAAPSQTSVYFCASRPWGNQNTEAFFGQGTRLTVVE
B8: TCR 27 (codon optimized, cysteine modified version) (TCR, V domains shown)
V domain 1: DAKTTQPNSMESNEEEPVHLPCNHSTISGTDYIHWYRQLPSQGPEYVIHGLTSNVNNRMASLAIAEDRKSSTLILHRATLRDAAVYYCILRVPPQSGGYQKVTFGTGTKLQVIP
V domain 2: NAGVTQTPKFQVLKTGQSMTLQCAQDMNHNSMYWYRQDPGMGLRLIYYSASEGTTDKGEVPNGYNVSRLNKREFSLRLESAAPSQTSVYFCASSEFGSLNEKLFFGSGTQLSVLE
B9: TCR 22 (codon optimized, cysteine modified version) (TCR, V domains shown)
V domain 1: GQNIDQPTEMTATEGAIVQINCTYQTSGFNGLFWYQQHAGEAPTFLSYNVLDGLEEKGRFSSFLSRSKGYSYLLLKELQMKDSASYLCAVRARMDSNYQLIWGAGTKLIIKP
V domain 2: DAGVTQSPTHLIKTRGQHVTLRCSPISGHKSVSWYQQVLGQGPQFIFQYYEKEERGRGNFPDRFSARQFPNYSSELNVNALLLGDSALYLCASSRTENYGYTFGSGTRLTVVE
B10: TCR 30 (codon optimized, cysteine modified version) (TCR, V domains shown)
V domain 1: DAKTTQPPSMDCAEGRAANLPCNHSTISGNEYVYWYRQIHSQGPQYIIHGLKNNETNEMASLIITEDRKSSTLILPHATLRDTAVYYCIVRGTSVLQGNEKLTFGTGTRLTIIP
V domain 2: EPEVTQTPSHQVTQMGQEVILRCVPISNHLYFYWYRQILGQKVEFLVSFYNNEISEKSEIFDDQFSVERPDGSNFTLKIRSTKLEDSAMYFCASSRQPSSGNTIYFGEGSWLTVVE
B11: modified version of TCR 13 (codon optimized, cysteine modified) (TCR, V domains shown)
V domain 1: AQSVTQLDSHVSVSEGTPVLLRCNYSSSYSPSLFWYVQHPNKGLQLLLKYTSAATLVKGINGFEAEFKKSETSFHLTKPSAHMSDAAEYFCVVRGGKLIFGQGTELSVKP
V domain 2: GAGVSQSPRYKVAKRGQDVALRCDPISGHVSLFWYQQALGQGPEFLTYFQNEAQLDKSGLPSDRFFAERPEGSVSTLKIQRTQQEDSAVYLCASSPTGTERELFFGEGSRLTVLE
B12: modified version of TCR 4 (codon optimized, cysteine modified) (TCR)
TCR alpha: DAKTTQPNSMESNEEEPVHLPCNHSTISGTDYIHWYRQLPSQGPEYVIHGLTSNVNNRMASLAIAEDRKSSTLILHRATLRDAAVYYCILLVIRGTSYGKLTFGQGTILTVHPNIQNPDPAVYQLRDSKSSDKSVCLFTDFDSQTNVSQSKDSDVYITDKCVLDMRSMDFKSNSAVAWSNKSDFACANAFNNSIIPEDTFFPSPESSCDVKLVEKSFETDTNLNFQNLSVIGFRILLLKVAGFNLLMTLRLWSS
TCR beta: DTGVSQDPRHKITKRGQNVTFRCDPISEHNRLYWYRQTLGQGPEFLTYFQNEAQLEKSRLLSDRFSAERPKGSFSTLEIQRTEQGDSAMYLCASSPGGGNTEAFFGQGTRLTVVEDLNKVFPPEVAVFEPSEAEISHTQKATLVCLATGFFPDHVELSWWVNGKEVHSGVCTDPQPLKEQPALNDSRYCLSSRLRVSATFWQNPRNHFRCQVQFYGLSENDEWTQDRAKPVTQIVSAEAWGRADCGFTSVSYQQGVLSATILYEILLGKATLYAVLVSALVLMAMVKRKDF
B13: modified version of TCR 14 (codon optimized, cysteine modified) (TCR)
TCR alpha: ILNVEQSPQSLHVQEGDSTNFTCSFPSSNFYALHWYRWETAKSPEALFVMTLNGDEKKKGRISATLNTKEGYSYLYIKGSQPEDSATYLCASQTGANNLFFGTGTRLTVIPYIQNPDPAVYQLRDSKSSDKSVCLFTDFDSQTNVSQSKDSDVYITDKCVLDMRSMDFKSNSAVAWSNKSDFACANAFNNSIIPEDTFFPSPESSCDVKLVEKSFETDTNLNFQNLSVIGFRILLLKVAGFNLLMTLRLWSS
TCR beta: DVKVTQSSRYLVKRTGEKVFLECVQDMDHENMFWYRQDPGLGLRLIYFSYDVKMKEKGDIPEGYSVSREKKERFSLILESASTNQTSMYLCASTFWGQRRTEAFFGQGTRLTVVEDLNKVFPPEVAVFEPSEAEISHTQKATLVCLATGFFPDHVELSWWVNGKEVHSGVCTDPQPLKEQPALNDSRYCLSSRLRVSATFWQNPRNHFRCQVQFYGLSENDEWTQDRAKPVTQIVSAEAWGRADCGFTSVSYQQGVLSATILYEILLGKATLYAVLVSALVLMAMVKRKDF

How the values were obtained:
[1] = target: HPV 16 E6(29-38) peptide in the context of HLA-A02:01 on target cells (human; HPV 16); test: cell-based or functional assay
[2] = target: HPV 16 E7(11-19) peptide in the context of HLA-A02:01 on target cells (human; HPV 16); test: cell-based or functional assay
[3] = target: T1, HLA-A2/E6 (29-38) tetramer (human; HPV 16); test: tetramer flow cytometry; transfected Jurkat-derived cells, CD8+ population
T1 construct: also called E6(29-38) peptide-MHC tetramer; E6(29-38)-loaded tetramer
Protocol: (§1) For transfection, the CD4+ and CD4+/CD8+ cell mixtures were transiently transfected with TCR-encoding plasmids and 48 hours after transfection, cells were assessed by flow cytometry for (1) binding of the target peptide in the context of an MHC molecule (HLA:A02:01) by staining with an E6(29-38) peptide- or an E7(11-19) peptide-MHC tetramer reagent, and/or (2) CD8+ independent binding of the target by co-staining the tetramer-labeled cells with an anti-CD8 antibody.

[4] = target: T1, HLA-A2/E6 (29-38) tetramer; test: tetramer flow cytometry; transfected 1:1 CD4+ and CD4+/CD8+ Jurkat-derived cells;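 also: cell mixtures transiently transfected with TCR-encoding plasmids, analysed by flow cytometry 48 h later after HLA-A*02:01 E6 tetramer staining combined with anti-CD8 antibody co-staining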
Protocol: as §1

| Binder | % CD8+/IC IFNγ+; transduced primary CD8+ T cells with T2 cells pulsed with 10 uM E6(29-38) peptide, E:T 10:1, 4 h [1] [%] | % CD8+/IC IFNγ+; transduced primary CD8+ T cells with T2 cells pulsed with 10 uM E7(11-19) peptide (control peptide), E:T 10:1, 4 h [2] [%] | % cells in E6 tet+/CD8+ quadrant [3] [%] | % cells in E6 tet+/CD8- quadrant [3] [%] | % cells in E6 tet-/CD8+ quadrant [3] [%] | % cells in E6 tet-/CD8- quadrant [3] [%] | % cells in E6 tet+/CD8+ quadrant [4] [%] | % cells in E6 tet+/CD8- quadrant [4] [%] | % cells in E6 tet-/CD8+ quadrant [4] [%] | % cells in E6 tet-/CD8- quadrant [4] [%] |
| --- | --- | --- | --- | --- | --- | --- | --- | --- | --- | --- |
| B1 | 43.7 | 7.22 | – | – | – | – | – | – | – | – |
| B2 | – | – | 34.7 | 0.17 | 63.6 | 1.53 | 36.2 | 21.3 | 7.72 | 34.8 |
| B3 | – | – | 43.6 | 0.18 | 54.1 | 2.14 | 52.5 | 22.5 | 5.19 | 19.7 |
| B4 | – | – | 50.4 | 0.045 | 47.7 | 1.86 | 23.3 | 3.61 | 12 | 61.1 |
| B5 | – | – | 29.1 | 0.13 | 66.2 | 4.51 | 55 | 23.5 | 5.56 | 16 |
| B6 | 70.5 | – | – | – | – | – | – | – | – | – |
| B7 | – | – | 51.6 | 0.22 | 46 | 2.18 | 28.8 | 32.7 | 7.16 | 31.3 |
| B8 | – | – | 24.5 | 0.02 | 73.5 | 1.96 | 15.8 | 3.5 | 20.1 | 60.6 |
| B9 | – | – | 51.2 | 0.14 | 47.3 | 1.38 | – | – | – | – |
| B10 | – | – | – | – | – | – | 31 | 0.74 | 13.9 | 54.3 |
| B11 | – | – | 38.6 | 0.064 | 59.5 | 1.82 | – | – | – | – |
| B12 | 94.2 | 2.5 | – | – | – | – | – | – | – | – |
| B13 | – | – | 38.4 | 0.04 | 59.7 | 1.8 | – | – | – | – |
